Drawing on patent US20160024487, this text covers FXa kcat/KM for two proteins.

For data set [1], the target named is T1, Lys(Dnp)-ATNATVKPRIVGG-Lys(Abz).
T1 chain: KATNATVKPRIVGGK

Data set [2] addresses T2, Lys(Dnp)-ATNATFVPRIVGG-Lys(Abz).
T2 chain: KATNATFVPRIVGGK

The target of data set [3] is T3, Lys(Dnp)-ATNATFMPRIVGG-Lys(Abz).
T3 chain: KATNATFMPRIVGGK

Data set [4] deals with T4, Lys(Dnp)-ATNATMVPRIVGG-Lys(Abz).
T4 chain: KATNATMVPRIVGGK

In data set [5] the target is T5, Lys(Dnp)-ATNATYQPRIVGG-Lys(Abz).
T5 chain: KATNATYQPRIVGGK

For data set [6], the target named is T6, Lys(Dnp)-ATNATFRPRIVGG-Lys(Abz).
T6 chain: KATNATFRPRIVGGK

Data set [7] deals with T7, Lys(Dnp)-ATNATPQPRIVGG-Lys(Abz).
T7 chain: KATNATPQPRIVGGK

Data set [8] addresses T8, Lys(Dnp)-ATNATIRPRIVGG-Lys(Abz).
T8 chain: KATNATIRPRIVGGK

Data set [9] has as its target T9, Lys(Dnp)-ATNATMMPRIVGG-Lys(Abz).
T9 chain: KATNATMMPRIVGGK

The target in data set [10] is T10, Lys(Dnp)-ATNATVWPRIVGG-Lys(Abz).
T10 chain: KATNATVWPRIVGGK

Data set [11] concerns the target T11, Lys(Dnp)-ATNATGLPRIVGG-Lys(Abz).
T11 chain: KATNATGLPRIVGGK

Data set [12] addresses T12, Lys(Dnp)-ATNATYPPRIVGG-Lys(Abz).
T12 chain: KATNATYPPRIVGGK

Data set [13] deals with T13, Lys(Dnp)-ATNATGTPRIVGG-Lys(Abz).
T13 chain: KATNATGTPRIVGGK

In data set [14] the target is T14, Lys(Dnp)-ATNATASPRIVGG-Lys(Abz).
T14 chain: KATNATASPRIVGGK

Data set [15] has as its target T15, Lys(Dnp)-ATNATPIPRIVGG-Lys(Abz).
T15 chain: KATNATPIPRIVGGK

Data set [16] addresses T16, Lys(Dnp)-ATNATISPRIVGG-Lys(Abz).
T16 chain: KATNATISPRIVGGK

Data set [17] has as its target T17, Lys(Dnp)-ATNATKAPRIVGG-Lys(Abz).
T17 chain: KATNATKAPRIVGGK

Data set [18] addresses T18, Lys(Dnp)-ATNATMAPRIVGG-Lys(Abz).
T18 chain: KATNATMAPRIVGGK

Data set [19] has as its target T19, Lys(Dnp)-ATNATMSPRIVGG-Lys(Abz).
T19 chain: KATNATMSPRIVGGK

Data set [20] has as its target T20, Lys(Dnp)-ATNATDRPRIVGG-Lys(Abz).
T20 chain: KATNATDRPRIVGGK

In data set [21] the target is T21, Lys(Dnp)-ATNATSNPRIVGG-Lys(Abz).
T21 chain: KATNATSNPRIVGGK

In data set [22] the target is T22, Lys(Dnp)-ATNATDVPRIVGG-Lys(Abz).
T22 chain: KATNATDVPRIVGGK

For data set [23], the target named is T23, Lys(Dnp)-ATNATWMPRIVGG-Lys(Abz).
T23 chain: KATNATWMPRIVGGK

Data set [24] deals with T24, Lys(Dnp)-ATNATRMPRIVGG-Lys(Abz).
T24 chain: KATNATRMPRIVGGK

For data set [25], the target named is T25, Lys(Dnp)-ATNATKIPRIVGG-Lys(Abz).
T25 chain: KATNATKIPRIVGGK

In data set [26] the target is T26, Lys(Dnp)-ATNATKQPRIVGG-Lys(Abz).
T26 chain: KATNATKQPRIVGGK

Data set [27] concerns the target T27, Lys(Dnp)-ATNATIEPRIVGG-Lys(Abz).
T27 chain: KATNATIEPRIVGGK

In data set [28] the target is T28, Lys(Dnp)-ATNATYAPRIVGG-Lys(Abz).
T28 chain: KATNATYAPRIVGGK

The target in data set [29] is T29, Lys(Dnp)-ATNATILPRIVGG-Lys(Abz).
T29 chain: KATNATILPRIVGGK

Data set [30] deals with T30, Lys(Dnp)-ATNATYMPRIVGG-Lys(Abz).
T30 chain: KATNATYMPRIVGGK

In data set [31] the target is T31, Lys(Dnp)-ATNATLGPRIVGG-Lys(Abz).
T31 chain: KATNATLGPRIVGGK

Data set [32] deals with T32, Lys(Dnp)-ATNATKTPRIVGG-Lys(Abz).
T32 chain: KATNATKTPRIVGGK

Data set [33] addresses T33, Lys(Dnp)-ATNATSKPRIVGG-Lys(Abz).
T33 chain: KATNATSKPRIVGGK

In data set [34] the target is T34, Lys(Dnp)-ATNATVAPRIVGG-Lys(Abz).
T34 chain: KATNATVAPRIVGGK

Data set [35] has as its target T35, Lys(Dnp)-ATNATPHPRIVGG-Lys(Abz).
T35 chain: KATNATPHPRIVGGK

The target in data set [36] is T36, Lys(Dnp)-ATNATRWPRIVGG-Lys(Abz).
T36 chain: KATNATRWPRIVGGK

Data set [37] deals with T37, Lys(Dnp)-ATNATPAPRIVGG-Lys(Abz).
T37 chain: KATNATPAPRIVGGK

For data set [38], the target named is T38, Lys(Dnp)-ATNATKSPRIVGG-Lys(Abz).
T38 chain: KATNATKSPRIVGGK

Data set [39] deals with T39, Lys(Dnp)-ATNATQDPRIVGG-Lys(Abz).
T39 chain: KATNATQDPRIVGGK

The target of data set [40] is T40, Lys(Dnp)-ATNATFLPRIVGG-Lys(Abz).
T40 chain: KATNATFLPRIVGGK

Data set [41] deals with T41, Lys(Dnp)-ATNATWWPRIVGG-Lys(Abz).
T41 chain: KATNATWWPRIVGGK

B1: Human plasma purified Factor Xa (protein)
chain 1: ANSFLEEMKKGHLERECMEETCSYEEAREVFEDSDKTNEFWNKYKDGDQCETSPCQNQGKCKDGLGEYTCTCLEGFEGKNCELFTRKLCSLDNGDCDQFCHEEQNSVVCSCARGYTLADNGKACIPTGPYPCGKQTLER
chain 2: IVGGQECKDGECPWQALLINEENEGFCGGTILSEFYILTAAHCLYQAKRFKVRVGDRNTEQEEGGEAVHEVEVVIKHNRFTKETYDFDIAVLRLKTPITFRMNVAPACLPERDWAESTLMTQKTGIVSGFGRTHEKGRQSTRLKMLEVPYVDRNSCKLSSSFIITQNMFCAGYDTKQEDACQGDSGGPHVTRFKDTYFVTGIVSWGEGCARKGKYGIYTKVTAFLKWIDRSMKTRGLPKAKSHAPEVITSSPLK
For the protein B1, the FXa kcat/KM was found to be 38 M⁻¹ s⁻¹ in data set [1]; 71 M⁻¹ s⁻¹ in [2]; 840 M⁻¹ s⁻¹ in [3]; 100 M⁻¹ s⁻¹ in [4]; 60 M⁻¹ s⁻¹ in data set [5]; 430 M⁻¹ s⁻¹ in [6]. In addition, the FXa kcat/KM was determined as 1100 M⁻¹ s⁻¹ in [7], 760 M⁻¹ s⁻¹ in data set [8], 1000 M⁻¹ s⁻¹ in data set [9] and 190 M⁻¹ s⁻¹ in [10].

B2: Human plasma purified Factor Xa (Molecular Innovations, Inc) (protein)
chain 1: ANSFLEEMKKGHLERECMEETCSYEEAREVFEDSDKTNEFWNKYKDGDQCETSPCQNQGKCKDGLGEYTCTCLEGFEGKNCELFTRKLCSLDNGDCDQFCHEEQNSVVCSCARGYTLADNGKACIPTGPYPCGKQTLER
chain 2: IVGGQECKDGECPWQALLINEENEGFCGGTILSEFYILTAAHCLYQAKRFKVRVGDRNTEQEEGGEAVHEVEVVIKHNRFTKETYDFDIAVLRLKTPITFRMNVAPACLPERDWAESTLMTQKTGIVSGFGRTHEKGRQSTRLKMLEVPYVDRNSCKLSSSFIITQNMFCAGYDTKQEDACQGDSGGPHVTRFKDTYFVTGIVSWGEGCARKGKYGIYTKVTAFLKWIDRSMKTRGLPKAKSHAPEVITSSPLK
Consider B2, for which the FXa kcat/KM in [11] stood at 78 M⁻¹ s⁻¹; in data set [12], 20 M⁻¹ s⁻¹; in data set [13], 59 M⁻¹ s⁻¹; in data set [14], 310 M⁻¹ s⁻¹; in data set [15], 590 M⁻¹ s⁻¹; in [16] it was 610 M⁻¹ s⁻¹. Also, the FXa kcat/KM in [17] came to 52 M⁻¹ s⁻¹; in data set [18] it was 360 M⁻¹ s⁻¹; in [19] it was 570 M⁻¹ s⁻¹; in data set [20], 190 M⁻¹ s⁻¹; in data set [21], 24 M⁻¹ s⁻¹; in [22], 15 M⁻¹ s⁻¹. In addition, the FXa kcat/KM was found to be 200 M⁻¹ s⁻¹ in data set [23]; 4600 M⁻¹ s⁻¹ in data set [24]; 62 M⁻¹ s⁻¹ in data set [25]; 100 M⁻¹ s⁻¹ in [26]; 1300 M⁻¹ s⁻¹ in data set [27]; 49 M⁻¹ s⁻¹ in [28]. For the same protein, the FXa kcat/KM in [29] was 700 M⁻¹ s⁻¹; in data set [30], 160 M⁻¹ s⁻¹; in [31], 140 M⁻¹ s⁻¹; in data set [32] it was 72 M⁻¹ s⁻¹; in data set [33], 13 M⁻¹ s⁻¹; in data set [34] it was 62 M⁻¹ s⁻¹. The FXa kcat/KM in [35] is 360 M⁻¹ s⁻¹; in data set [36], 3000 M⁻¹ s⁻¹; in data set [37] it was 170 M⁻¹ s⁻¹; in [38], 84 M⁻¹ s⁻¹; in [39] it was 680 M⁻¹ s⁻¹; in data set [40] it was 530 M⁻¹ s⁻¹. The protein further gave an FXa kcat/KM in [41] of 70 M⁻¹ s⁻¹.
